The results in this text go back to patent publication US20210380675A1 (Kyowa Kirin, published 2021).

Assay [1] deals with T1, human IL-36α(Q12), truncated (human, UniProt Q9UHA7 6-158).
T1 construct: Untagged after removal of the His-SUMO tag
T1 sequence: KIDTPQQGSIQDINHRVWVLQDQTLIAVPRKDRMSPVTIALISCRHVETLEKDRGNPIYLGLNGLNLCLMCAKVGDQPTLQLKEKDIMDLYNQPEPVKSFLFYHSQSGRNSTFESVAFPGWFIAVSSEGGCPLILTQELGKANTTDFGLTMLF
Put plainly: SPR, Biacore T200, antibody on chip, IL-36 as analyte, 1:1 Langmuir fit. Here is the method:
(§1) Antibodies were further tested for their binding to recombinant human or cynomolgus IL36α, IL-36γ in Biacore assays. In order to kinetically analyze the binding activity of the IL-36α and IL-36γ dual antagonist antibodies, the binding activity to human and cynomolgus IL-36α and IL-36γ was measured by surface plasmon resonance method (SPR). All of the following manipulations were carried out using a Biacore T200 (GE Healthcare Life Sciences, Pittsburgh, Pa.).
(§2) To determine antibody affinity to human and cynomolgus IL36, recombinant antibodies were immobilized on a CM5 sensor chip (cat# BR100012, GE Healthcare Life Sciences, Pittsburgh, Pa.) by an amine coupling chemistry. In particular, the kinetic assay was carried out by immobilizing on the chip approximately 2000 RU of recombinant antibody. Thereafter, recombinant human or cynomolgus IL36 proteins, serially diluted from a high concentration, were allowed to run at a flow rate of 30 μL/min onto the chip for 420 seconds. The dissociation time was 3600 seconds and the binding curves were measured at 25° C. Regeneration was performed with 10 mM glycine pH 1.5 for 30s. Alternatively, the analytes were injected with increasing concentrations in a single cycle, the surface not being regenerated between injections, using a method referred to as “single cycle kinetics.” In particular, either anti-human or anti-mouse Fc specific antibodies were immobilized on a CM5 sensor chip (cat# BR100012, GE Healthcare Life Sciences, Pittsburgh, Pa.) by an amine coupling chemistry. Thereafter, IL-36α and IL-36γ dual antagonist mouse/human chimeric or mouse antibodies were captured at approximately 200 RUs, followed by injections of increasing concentrations of recombinant human and cynomolgus IL36 proteins. The association time was 300 seconds, and the final dissociation time was 1200 seconds. At the end of the analyte injections, the surface was regenerated with either 3M MgCl₂ (anti-human Fc capture antibody) for 30 s or 10 mM glycine-HCl pH 1.7 for 180 s (anti-mouse IgG capture antibody).
(§3) The raw data were double referenced by subtraction of the signals from a reference flow cell without immobilized ligand and a buffer blank. The sensorgram corresponding to each concentration was obtained.

Assay [2] deals with T2, cynomolgus IL-36α, truncated (cynomolgus macaque (Macaca fascicularis), UniProt Q9UHA7 14-158 (human entry), limits assumed).
T2 chain: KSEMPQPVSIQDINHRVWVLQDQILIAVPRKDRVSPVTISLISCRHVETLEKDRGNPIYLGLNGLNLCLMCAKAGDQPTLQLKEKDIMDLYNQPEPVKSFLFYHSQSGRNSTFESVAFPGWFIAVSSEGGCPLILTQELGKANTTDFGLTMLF
In words: cell-based or functional assay.

Assay [3] deals with T3, human IL-36α(R12), truncated (human, UniProt Q9UHA7 6-158).
T3 chain: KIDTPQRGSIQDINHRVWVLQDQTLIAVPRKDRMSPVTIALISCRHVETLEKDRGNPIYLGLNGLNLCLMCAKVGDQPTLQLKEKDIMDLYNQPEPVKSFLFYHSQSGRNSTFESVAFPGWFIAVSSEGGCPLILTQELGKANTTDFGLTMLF
In words: cell-based or functional assay.

Assay [4] concerns the target T4, human IL-36γ, truncated (human, UniProt Q9NZH8 18-169).
T4 sequence: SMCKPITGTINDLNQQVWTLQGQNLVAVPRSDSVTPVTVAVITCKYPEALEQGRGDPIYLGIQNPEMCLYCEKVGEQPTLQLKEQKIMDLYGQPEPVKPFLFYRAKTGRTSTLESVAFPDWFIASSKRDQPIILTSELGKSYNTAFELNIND
Put plainly: cell-based or functional assay.

Assay [5] has as its target T5, cynomolgus IL-36γ, truncated (cynomolgus macaque (Macaca fascicularis), UniProt Q9NZH8 18-167 (human entry), limits assumed).
T5 chain: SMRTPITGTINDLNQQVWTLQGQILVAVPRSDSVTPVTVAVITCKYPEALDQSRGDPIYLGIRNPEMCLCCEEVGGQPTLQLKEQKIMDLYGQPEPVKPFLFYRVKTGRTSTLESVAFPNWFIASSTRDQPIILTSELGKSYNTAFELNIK
In words: cell-based or functional assay.

For assay [6], the target named is T4, human IL-36γ, truncated. In words: cell-based or functional assay. The source holds these as a separate data set.
Assay [7] addresses T3, human IL-36α(R12), truncated. Put plainly: SPR, Biacore T200, antibody on chip, IL-36 as analyte, 1:1 Langmuir fit. The procedure:
as §1, §2, §3
(In SPR one partner is held on a chip, and binding of the other changes the refractive index at the surface.)

Assay [8] deals with T4, human IL-36γ, truncated. The description is as above. Here is the method: as §1, §2, §3
The target in assay [9] is T3, human IL-36α(R12), truncated. In words: cell-based or functional assay.
Assay [10] has as its target T2, cynomolgus IL-36α, truncated. In words: SPR, Biacore, 1:1 Langmuir fit; heads of c3 and c4 printed swapped. The procedure:
(§4) The humanized antibodies obtained in Example 6 were tested for their binding to recombinant human or cynomolgus macaque IL36a and IL-36γ in Biacore assays. The association time was set to 60 seconds, and the final dissociation time was set to 600 seconds. Equilibrium dissociation constant KD (kd/ka) of exemplary antibodies was determined using a 1:1 Langmuir fit model (see Tables 17-18 below).

In assay [11] the target is T3, human IL-36α(R12), truncated. Described as above. Here is the method: as §4
For assay [12], the target named is T4, human IL-36γ, truncated. Described as above. Here is the method: as §4
Assay [13] deals with T5, cynomolgus IL-36γ, truncated. The description is as above. Here is the method: as §4
The target of assay [14] is T2, cynomolgus IL-36α, truncated. Put plainly: SPR, Biacore, 1:1 Langmuir fit. Here is the method: as §4
The target of assay [15] is T3, human IL-36α(R12), truncated. Put plainly: SPR, Biacore, 1:1 Langmuir fit. Here is the method: as §4
In assay [16] the target is T4, human IL-36γ, truncated. Put plainly: SPR, Biacore, 1:1 Langmuir fit. The procedure:
as §4

In assay [17] the target is T5, cynomolgus IL-36γ, truncated. In words: SPR, Biacore, 1:1 Langmuir fit. The procedure: as §4

B1: m/h 144J171G (antibody, human IgG1, lambda, V domains shown)
VH: EVQLQQSGAELVEPGASVKLSCTASGFNIKDTYINWVKQRPEQGLEWIGRIDPANGYTRYAPKFQGKATITSDTSSNTAYLQLSSLTSEDAAVYSCSTLNYYGSSFFFDFWGQGTTLTVSS
VL: QAVVTQESALTTSPGETVTLTCRSSTGAVTTSNYANWVQEKPDHLFTGLIGGTNNRAPGVPARFSGSLIGDKAALTITGAQTEDEAIYFCALWYSNHWVFGGGTKLTVLG
notes: Mouse VH/VL joined to human IgG1 constant and human Ig lambda (IGLC2) constant; also called chimeric mouse/human 144J171G
For the molecule B1, in [1], the Kd was found to be 7.01 nM, the koff turned out to be 0.00868 s⁻¹ and the kon stood at 1.24e+06 M⁻¹ s⁻¹. Besides, the “IC50 of IL-8 secretion, HaCaT, 10 nM cynomolgus IL-36α, FIG. 2A” value in [2] was 19.3 nM. Besides, the “IC50 of IL-8 secretion, HaCaT, 10 nM human IL-36α, FIG. 1B” value in [3] worked out at 39.2 nM. Also, the “IC50 of IL-8 secretion, HaCaT, 10 nM human IL-36γ, FIG. 1E” value with human IL-36γ, truncated [4] stood at 19.4 nM. In addition, the “IC50 of IL-8 secretion, HaCaT, 10 nM cynomolgus IL-36γ, FIG. 2C” value in [5] stood at 44.4 nM.

B2: 144J171G (antibody, V domains shown)
VH: EVQLQQSGAELVEPGASVKLSCTASGFNIKDTYINWVKQRPEQGLEWIGRIDPANGYTRYAPKFQGKATITSDTSSNTAYLQLSSLTSEDAAVYSCSTLNYYGSSFFFDFWGQGTTLTVSS
VL: QAVVTQESALTTSPGETVTLTCRSSTGAVTTSNYANWVQEKPDHLFTGLIGGTNNRAPGVPARFSGSLIGDKAALTITGAQTEDEAIYFCALWYSNHWVFGGGTKLTVL
For B2, the “IC50 of IL-8 secretion, HaCaT, 10 nM cynomolgus IL-36α, FIG. 2A” value in [2] was found to be 16.8 nM. Further, the “IC50 of IL-8 secretion, HaCaT, 10 nM human IL-36α, FIG. 1B” value in assay [3] stood at 27 nM. For the same molecule, in the assay with human IL-36γ, truncated [6], the “IC50 of IL-8 secretion, primary human monocytes, 50 nM human IL-36γ, FIG. 5D” value worked out at 113 nM. The “IC50 of IL-8 secretion, HaCaT, 10 nM human IL-36γ, FIG. 1E” value in the assay with human IL-36γ, truncated [4] turned out to be 19.2 nM. The “IC50 of IL-8 secretion, HaCaT, 10 nM cynomolgus IL-36γ, FIG. 2C” value in assay [5] turned out to be 82.7 nM.

B3: m/h 144D666C (antibody, human IgG1, lambda, V domains shown)
VH: EVQLQQSGAELVKPGASVKLTCTASGFNIKDTYIYWVKQRPAQGLEWIGRIDPANAYTKFDPKFQGKATLTADTSSNTAYLQLSSLTSEDTAVYYCTRFHWYGSSFFFDYWGQGTTLTVSS
VL: QAVVTQESALTTSPGETVTLTCRSSTGAVTTSNYANWVQEKPDHLFTGLIGGTDNRPPGVPARFSGSLIGDKAALTITGAQTEDEAIYFCALWYSNLWVFGGGTKLTVLG
notes: Mouse VH/VL joined to human IgG1 constant and human Ig lambda (IGLC2) constant; also called chimeric mouse/human 144D666C
In [1], B3 had a dissociation constant (Kd) of 1.75 nM, a koff of 0.000834 s⁻¹ and a kon of 476000 M⁻¹ s⁻¹. In assay [7], this molecule registered a Kd of 25.1 nM, a koff of 0.00219 s⁻¹ and a kon of 87300 M⁻¹ s⁻¹. In the assay with human IL-36γ, truncated [8], this molecule came in with a Kd of 3.06 nM, a koff of 0.000342 s⁻¹ and a kon of 112000 M⁻¹ s⁻¹. In the assay with human IL-36γ, truncated [6], the “IC50 of IL-8 secretion, primary human monocytes, 6 nM human IL-36γ, FIG. 5C” value is 9.02 nM and the “IC50 of IL-8 secretion, primary human monocytes, 50 nM human IL-36γ, FIG. 5D” value was determined as 38.1 nM.

B4: m/h 144L249B (antibody, human IgG1, lambda, V domains shown)
VH: EVQLQQSGAELVKPGASVKLSCTASGFNIKDTYIYWVKQRPEQGLEWIGRIDPAIGTTRYDPKFQGKATLTADTSSNTAFLQLSSLTSEDTAVYYCARYDYSGSSFYFDYWGRGTTLTVSS
VL: QAVVTQESALTTSPGETVTLTCRSSTGAVTTSNYANWVQEKPDHLFTGLIGGTNNRAPGVPARFSGSLIGDKAALTITGAQTEDEAIYFCALWYSNHLVFGGGTKLTVLG
notes: Mouse VH/VL joined to human IgG1 constant and human Ig lambda (IGLC2) constant; also called chimeric mouse/human 144L249B
In assay [1], B4 showed a Kd of 1.02 nM, a koff of 0.000825 s⁻¹ and a kon of 805000 M⁻¹ s⁻¹. Moreover, the “IC50 of IL-8 secretion, primary human monocytes, 40 nM human IL-36α, FIG. 5B” value in [9] was found to be 38.3 nM.

B5: 144D464A LV10re HV10b (antibody, V domains shown)
VH: QVQLVQSGAEVKKPGASVKVSCKASGFNIKDTYIHWVRQAPGQGLEWIGRIDPAIGTTRYDPKFQGRATITTDTSTSTVYLEFSSLRSEDTAVYYCARLHYFGNNFFFDYWGQGTLVTVSS
VL: QAVVTQEPSLTVSPGGTVTLTCRSSSGAVTTSNYANWVQEKPGQLFAGLIGGTNDRAPGVPARFSGSLLGGKAALTLSGAQPEDEAIYFCALWFSNHWVFGGGTKLTVL
notes: Humanized
For the molecule B5, the koff in assay [10] turned out to be 0.000415 s⁻¹; in assay [11], 0.000429 s⁻¹; with human IL-36γ, truncated [12], 0.000425 s⁻¹; in assay [13], 0.00047 s⁻¹. For the same molecule, the association rate constant (kon) in assay [10] stood at 372000 M⁻¹ s⁻¹; in [11], 229000 M⁻¹ s⁻¹; in the assay with human IL-36γ, truncated [12], 353000 M⁻¹ s⁻¹; in [13], 460000 M⁻¹ s⁻¹. Further, the Kd in assay [14] came to 1.12 nM; in assay [15] it was 1.87 nM; in the assay with human IL-36γ, truncated [16], 1.2 nM; in assay [17] it was 1.02 nM.

B6: 144D464A LV11re HV10b (antibody, V domains shown)
VH: QVQLVQSGAEVKKPGASVKVSCKASGFNIKDTYIHWVRQAPGQGLEWIGRIDPAIGTTRYDPKFQGRATITTDTSTSTVYLEFSSLRSEDTAVYYCARLHYFGNNFFFDYWGQGTLVTVSS
VL: QAVVTQEPSLTVSPGGTVTLTCRSSSGAVTTSNYANWVQEKPGQLFAGLIGGTNDRAPGVPARFSGSLLGGKAALTISGAQPEDEAIYFCALWFSNHWVFGGGTKLTVL
notes: Humanized
Take B6: the koff in [10] is 0.000407 s⁻¹; in assay [11], 0.000422 s⁻¹; with human IL-36γ, truncated [12], 0.00042 s⁻¹; in assay [13], 0.000463 s⁻¹. Moreover, the kon worked out at 369000 M⁻¹ s⁻¹ in assay [10]; 226000 M⁻¹ s⁻¹ in [11]; 346000 M⁻¹ s⁻¹ with human IL-36γ, truncated [12]; 446000 M⁻¹ s⁻¹ in assay [13]. The Kd in [14] was determined as 1.1 nM; in assay [15], 1.86 nM; with human IL-36γ, truncated [16] it was 1.21 nM; in assay [17] it was 1.04 nM.

As usually defined, the Kd is a measure of binding affinity in units of concentration. Read a high Kd as a looser complex. Broadly, the koff is the rate constant with which the complex falls apart. The term kon denotes the rate constant with which the complex forms. Low readings indicate slower complex formation, high ones faster complex formation.
